# How the values were obtained:
# [1] = tested on: endogenous AHAS genes (three homoeologous copies); assay: transient assay of ZFN-mediated NHEJ-directed AHAS editing in biolistically transfected scutella; assay type: cell-based, Triticum aestivum; details: for Editing Frequency (ppm): NHEJ, scutella; for molecular evidence for ZFN-mediated NHEJ-directed gene editing: samples of SEC protoplasts and scutella, with pDAB109350 (pDAS000149, pDAS000150 also pDAB109360)
# Excerpt: (§1) The first type of donor design was a linear, double stranded DNA molecule comprising 41-bp of sequence that shared no homology with the endogenous AHAS genes in wheat. Two donor DNA molecules were designed, each to target the three homoeologous copies of the AHAS gene. Both donor DNA molecules had protruding 5′ and 3′ ends to provide ligation overhangs to facilitate ZFN-mediated NHEJ-directed DNA repair. The two donor DNA molecules differed by the sequence at their protruding 3′ end. The first donor DNA molecule, pDAS000152 (SEQ ID NO:74 and SEQ ID NO:75), was designed to provide ligation overhangs that were compatible with those generated by cleavage of the endogenous AHAS genes by ZFNs 29732 and 29730 (encoded on plasmid pDAB109350) and to result in the insertion of the 41-bp donor molecule into the endogenous AHAS gene at the site of the double strand DNA break via NHEJ-directed DNA repair. The second donor DNA molecule pDAS000149 (SEQ ID NO: 76 and SEQ ID NO:77) was designed to provide ligation overhangs that were compatible with those generated by the dual cleavage of the endogenous AHAS genes by ZFNs 29732 and 29730 (encoded on plasmid pDAB109350) and ZFNs 30012 and 30018 (encoded on plasmid pDAB109360) and to result in the replacement of the endogenous AHAS sequence contained between the two double strand DNA breaks created by the ZFNs with the 41-bp donor molecule via NHEJ-directed DNA repair.
# (§2) The second type of donor was a plasmid DNA vector containing 41-bp of sequence that shared no homology with the endogenous AHAS genes in wheat and that was flanked on either side by sequence that was recognized by the ZFN(s) used to create double strand DNA breaks in the endogenous AHAS genes. This donor design allowed in planta release of the unique 41-bp sequence from the plasmid DNA molecule by the same ZFN(s) used to cleave target sites in the endogenous AHAS genes, and simultaneous generation of protruding ends that were suitable for overhang ligation of the released 41-bp sequence into the endogenous AHAS genes via NHEJ-directed DNA repair. Two plasmid donor DNA molecules were designed, each to target the three homoeologous copies of the AHAS gene. The first plasmid donor molecule, pDAS000153 (SED ID NO:78 and SEQ ID NO:79) (FIG. 8), was designed to provide ligation overhangs on the released 41-bp DNA fragment that were compatible with those generated by cleavage of the endogenous AHAS genes by ZFNs 29732 and 29730 (encoded on plasmid pDAB109350). The second plasmid donor molecule, pDAS000150 (SEQ ID NO:80 and SEQ ID NO:81) (FIG. 9), was designed to provide ligation overhangs on the released 41-bp DNA fragment that were at one end compatible with those generated by ZFNs 29732 and 29730 (encoded on plasmid pDAB109350) and at the other end compatible with those generated by ZFNs 30012 and 30018 (encoded on plasmid pDAB109360). This design allowed the replacement of the endogenous AHAS sequence contained between the two double strand DNA breaks created by ZFNs 29732 and 29730 and ZFNs 30012 and 30018 with the 41-bp donor molecule sequence.
# (§3) Seedlings of the donor wheat line were grown in an environment controlled growth room maintained at 18/16° C. (day/night) and a 16/8 hour (day/night) photoperiod with lighting provided at […]. Wheat spikes were collected at 12-14 days post-anthesis and were surface sterilized by soaking for 1 min in 70% (v/v) ethanol. The spikes were threshed and the immature seeds were sterilized for 15 min in 17% (v/v) bleach with gentle shaking, followed by rinsing at least three times with sterile distilled water. The embryos were aseptically isolated from the immature seeds under a dissecting microscope. The embryonic axis was removed using a sharp scalpel and discarded. The scutella were placed into a 9 cm PETRI™ dish containing osmotic MS (E3 maltose) medium, with the uncut scutellum oriented upwards. A total of 20 scutella were plated onto each 9 cm PETRI™ dish. […]
# [2] = tested on: endogenous AHAS genes (three homoeologous copies); assay: transient assay of ZFN-mediated NHEJ-directed AHAS editing in PEG-transfected SEC protoplasts; assay type: cell-based, Triticum aestivum; details: SEC protoplast
# Excerpt: as §1, §2
# as §3, with “2-4 medium without TIMENTIN™,” for “osmotic MS (E3 maltose) medium,”, “25” for “20”
# [3] = wheat sub-genome A, ZFN 29732-2A-29730, ratio 5:1
# [4] = wheat sub-genome A, ZFN 29732-2A-29730, ratio 10:1
# [5] = wheat sub-genome A, ZFN n/a (donor only), average of three biological replicates
# [6] = wheat sub-genome B, ZFN 29732-2A-29730, ratio 5:1
# [7] = wheat sub-genome B, ZFN 29732-2A-29730, ratio 10:1
# [8] = wheat sub-genome B, ZFN n/a (donor only)
# [9] = wheat sub-genome D, ZFN 29732-2A-29730, ratio 5:1
# [10] = wheat sub-genome D, ZFN 29732-2A-29730, ratio 10:1
# [11] = wheat sub-genome D, ZFN n/a (donor only)
# [12] = wheat sub-genome A, ZFN 29732-2A-29730, ratio 20:1
# [13] = wheat sub-genome B, ZFN 29732-2A-29730, ratio 20:1
# [14] = wheat sub-genome D, ZFN 29732-2A-29730, ratio 20:1
Molecule,"Editing Frequency (ppm) [1, 3] [ppm]","Editing Frequency (ppm) [1, 4] [ppm]","Editing Frequency (ppm) [1, 5] [ppm]","Editing Frequency (ppm) [1, 6] [ppm]","Editing Frequency (ppm) [1, 7] [ppm]","Editing Frequency (ppm) [1, 8] [ppm]","Editing Frequency (ppm) [1, 9] [ppm]","Editing Frequency (ppm) [1, 10] [ppm]","Editing Frequency (ppm) [1, 11] [ppm]",molecular evidence for ZFN-mediated NHEJ-directed gene editing [1],"Editing Frequency (ppm) [2, 3] [ppm]","Editing Frequency (ppm) [2, 4] [ppm]","Editing Frequency (ppm) [2, 12] [ppm]","Editing Frequency (ppm) [2, 5] [ppm]","Editing Frequency (ppm) [2, 6] [ppm]","Editing Frequency (ppm) [2, 7] [ppm]","Editing Frequency (ppm) [2, 13] [ppm]","Editing Frequency (ppm) [2, 8] [ppm]","Editing Frequency (ppm) [2, 9] [ppm]","Editing Frequency (ppm) [2, 10] [ppm]",also measured
"pDAS000150: plasmid donor with 41-bp sequence flanked by sites for ZFNs 29732/29730 and 30012/30018; SEQ ID NO:80, 81 (nucleic acid, pDAS000150) chain 1: TGGATATCATAGTCCCGCATCAGGAGCACGTGCTGCCTATGATCCCAAGCGGTGGTGCTTTCAAGGACATGATCATGGGTTAGGTGCTGGTGGTCCGAAGGTCCACGCCGCCAACTACGGATGGCAGGACCTCGTACTGAAATTTCGACCTACAAGACCTACAAGTGTGACATGCGCAATCAGCATGATGCCCGCGT chain 2: ACGCGGGCATCATGCTGATTGCGCATGTCACACTTGTAGGTCTTGTAGGTCGAAATTTCAGTACGAGGTCCTGCCATCCGTAGTTGGCGGCGTGGACCTTCGGACCACCAGCACCTAACCCATGATCATGTCCTTGAAAGCACCACCGCTTGGGATCATAGGCAGCACGTGCTCCTGATGCGGGACTATGATATCCA",1,0,0,0,0,0,4,0,0,Limited evidence,0,0,0,0,0,0,0,0,0,0,"Editing Frequency (ppm) [2, 14]: 0 ppm; Editing Frequency (ppm) [2, 11]: 0 ppm"
"pDAS000153: plasmid donor with 41-bp sequence flanked by ZFN 29732/29730 sites; SEQ ID NO:78, 79 (nucleic acid, pDAS000153) chain 1: TGGATATCATAGTCCCGCATCAGGAGCACGTGCTGCCTATGATCCCAAGCGGTGGTGCTTTCAAGGACATGATCATGGGTTAGGTGCTGGTGGTCCGAAGGTCCACGCCGCCAACTACGTGGATATCATAGTCCCGCATCAGGAGCACGTGCTGCCTATGATCCCAAGCGGTGGTGCTTTCAAGGACATGATCATGG chain 2: CCATGATCATGTCCTTGAAAGCACCACCGCTTGGGATCATAGGCAGCACGTGCTCCTGATGCGGGACTATGATATCCACGTAGTTGGCGGCGTGGACCTTCGGACCACCAGCACCTAACCCATGATCATGTCCTTGAAAGCACCACCGCTTGGGATCATAGGCAGCACGTGCTCCTGATGCGGGACTATGATATCCA",4,0,0,0,0,0,0,0,0,poor evidence,0,0,0,0,0,0,0,0,0,0,"Editing Frequency (ppm) [2, 14]: 0 ppm; Editing Frequency (ppm) [2, 11]: 0 ppm"

# From patent publication US10501748B2, “Methods and compositions for integration of an exogenous sequence within the genome of plants” (Dow AgroSciences LLC, priority 2013, dated 2019)
